From FireProtDB (doi:10.1016/j.bbapap.2014.10.010)

Details: Homo sapiens; pH 7.4; Thermal; DSC; Hepes 20 mM; NaCl 200 mM; transition: 2; reversible: No; whole UniProt chain shown

B1: Alanine--glyoxylate aminotransferase wild type, P21549 (protein)
chain: MASHKLLVTPPKALLKPLSIPNQLLLGPGPSNLPPRIMAAGGLQMIGSMSKDMYQIMDEIKEGIQYVFQTRNPLTLVISGSGHCALEAALVNVLEPGDSFLVGANGIWGQRAVDIGERIGARVHPMTKDPGGHYTLQEVEEGLAQHKPVLLFLTHGESSTGVLQPLDGFGELCHRYKCLLLVDSVASLGGTPLYMDRQGIDILYSGSQKALNAPPGTSLISFSDKAKKKMYSRKTKPFSFYLDIKWLANFWGCDDQPRMYHHTIPVISLYSLRESLALIAEQGLENSWRQHREAAAYLHGRLQALGLQLFVKDPALRLPTVTTVAVPAGYDWRDIVSYVIDHFDIEIMGGLGPSTGKVLRIGLLGCNATRENVDRVTEALRAALQHCPKKKL
  Tm: 82.1 °C
  unfolding enthalpy (calorimetric): 547 kcal/mol
